This series concerns the molecule itself. The series can be described thus: self-association: retained by a 100,000 MW cutoff membrane in diafiltration.

Here are results for 1 protein from patent US20040052816A1 (Pfizer, published 2004).

B1: recombinant 20 kDa surface associated protein from S. pneumoniae (Pneumo Protective Protein 1) (other)
chain: MNEVKKMVELKKEAVKDVTSLTKAAPVALAKTKEVLNQAVADLYVAHVALHQVHWYMHGRGFLVWHPKMDEYMEALDGQLDEISERLITLGGSPFSTLTEFLQNSEIEEEAGEYRNVEESLERVLVIYRYLSELFQKGLDVTDEEGDDVTNGIFAGAKTETDKTIWMLAAELGQAPGL
notes: also called r20 kDa; r20kDa
Take B1: the binding result is reported as “binds”.
